Consider three substances from publication PMC5472786.

The target of data set [1] is H2A-containing mono-nucleosome (recombinant Xenopus laevis histone octamer on 601 DNA with 70 bp of extranucleosomal DNA) (Xenopus laevis) (UniProt P06897). Nature of the data set: native gel or EMSA; 70N0 nucleosomes with photoreactive DNA bound with saturating amounts of INO80 at 30 °C; extent of binding assessed on 4% native polyacrylamide gels. On the technique in general: Mobility shift assays separate free from complexed probe on a gel.

Data set [2] relates to Ino80 (catalytic subunit within INO80 complex) (Saccharomyces cerevisiae S288C). Nature of the data set: site-specific DNA photocrosslinking. The settings on record: 10 A tether, in INO80 complex, AB-dUMP (10 A) or ABG2-dUMP (18.6 A) at nt -58 from dyad, EMSA: 10 mM Na-HEPES pH 7.8, 4 mM MgCl2, 60 mM NaCl, 0.2 mM EGTA, 0.04 mM EDTA, 8% glycerol, 0.1 ug/uL BSA, 30 C, 30 min, footprinting and crosslinking at 30 C.

Data set [3] relates to INO80 complex (Ino80-FLAG) (Saccharomyces cerevisiae S288C). The experiment in a line: EMSA. The settings on record: saturating INO80, 30 C, EMSA: 10 mM Na-HEPES pH 7.8, 4 mM MgCl2, 60 mM NaCl, 0.2 mM EGTA, 0.04 mM EDTA, 8% glycerol, 0.1 ug/uL BSA, 30 min, footprinting and crosslinking at 30 C.

Regarding “INO80 complex (from UniProt P53115 1-1489; P80428 1-489; P40154 1-320)”, the percent of nucleosomes bound in data set [1] is more than 90%.

As to “70N0 nucleosome, photoreactive dUMP at nt -58”, the binding signal (fold crosslinking vs no nucleotide) in data set [2] (ADP) and in data set [2] (ATPgS) was 4 in each case. Besides, the binding signal (% nucleosomes bound) in data set [3] (AB-dUMP (10 A) or ABG2-dUMP (18.6 A) at nt -58 from dyad) was more than 90.

In turn, “70N0 nucleosome, photoreactive dUMP at nt -33/-30” had a binding signal (% nucleosomes bound) in data set [3] (photoreactive dUMP at nt -30 to -33 from dyad) of more than 90.
